Results published in the Human Domainome abundance scans (Beltran et al. 2025).
± gives the uncertainty stated by the source.

B1: Transcriptional repressor p66-beta, residues 415 to 455; numbered along this chain, Q8WXI9 (parent)
chain: VEPFVCAQCRTDFTPHWKQEKNGKILCEQCMTSNQKKALKA

Variants of: B1
Assay: abundance fitness (aPCA) (normalised: wild type 0, dead -1); higher = more abundant; growth selection in yeast, the domain comes from the species named
Conditions: Homo sapiens

Variant	abundance fitness
N34K	-0.254 ± 0.14
N34W	-0.67 ± 0.12
C27G	-1.05 ± 0.21
C27L	-1.32 ± 0.27
C27E	-0.319 ± 0.27
C27Y	-0.444 ± 0.43
C27D	-0.504 ± 0.3
C27W	-1.02 ± 0.18
C27S	-0.739 ± 0.13
C27H	0.039 ± 0.18
C27T	-1.38 ± 0.32
C27V	-1.11 ± 0.23
C27Q	-0.79 ± 0.29
C27R	-1.06 ± 0.17
C27M	-1.31 ± 0.42
C27A	-1.01 ± 0.18
G23V	0.092 ± 0.062
G23T	0.045 ± 0.15
G23S	-0.104 ± 0.14
G23E	0.189 ± 0.083
G23R	0.003 ± 0.067

Variant	abundance fitness
G23D	0.343 ± 0.12
G23P	-0.016 ± 0.16
G23Q	0.335 ± 0.22
G23W	-0.392 ± 0.14
G23L	0.142 ± 0.14
G23M	0.422 ± 0.21
G23N	0.303 ± 0.18
G23H	0.385 ± 0.27
G23C	-0.137 ± 0.18
T32C	-0.177 ± 0.17
T32P	-0.056 ± 0.14
T32I	-0.033 ± 0.13
T32L	-0.312 ± 0.093
T32E	-0.186 ± 0.092
T32F	-0.143 ± 0.25
T32W	-0.453 ± 0.08
T32Q	-0.173 ± 0.092
T32V	-0.127 ± 0.06
T32A	-0.047 ± 0.061
T32S	-0.312 ± 0.13
T32M	-0.145 ± 0.087

Variant	abundance fitness
T32K	0.045 ± 0.26
T32G	-0.121 ± 0.065
T32R	-0.145 ± 0.062
A41G	0.01 ± 0.075
A41S	0.004 ± 0.23
A41K	-0.091 ± 0.43
A41V	0.153 ± 0.18
A41E	-0.02 ± 0.27
A41C	-0.215 ± 0.2
A41M	-0.247 ± 0.2
A41L	0.211 ± 0.14
A41R	-0.071 ± 0.079
A41W	0.002 ± 0.49
K24M	-0.082 ± 0.11
K24S	-0.228 ± 0.095
K24G	-0.02 ± 0.058
K24C	-0.213 ± 0.15
K24A	-0.079 ± 0.073
K24D	-0.166 ± 0.47
K24V	-0.148 ± 0.076
K24Q	0.097 ± 0.094

Variant	abundance fitness
K24R	0.028 ± 0.059
K24L	-0.106 ± 0.07
K24T	-0.174 ± 0.14
K24H	0.013 ± 0.42
K24E	0.17 ± 0.094
L39Q	-0.291 ± 0.17
L39T	-0.199 ± 0.13
L39D	-0.558 ± 0.3
L39E	-0.108 ± 0.1
L39S	0.094 ± 0.097
L39I	0.122 ± 0.18
L39Y	0.577 ± 0.33
L39V	0.078 ± 0.061
L39F	-0.425 ± 0.26
L39C	-0.1 ± 0.16
L39R	-0.016 ± 0.061
L39A	-0.083 ± 0.079
L39H	-0.078 ± 0.14
L39K	-0.015 ± 0.13
L39G	0.157 ± 0.052
L39N	0.54 ± 0.45
